The values that follow come from patent publication US20180125973A1 (AstraZeneca / MedImmune, published 2018).

One experiment deals with T1, Human CD73 on cells (human, UniProt P21589 27-549).
T1 sequence: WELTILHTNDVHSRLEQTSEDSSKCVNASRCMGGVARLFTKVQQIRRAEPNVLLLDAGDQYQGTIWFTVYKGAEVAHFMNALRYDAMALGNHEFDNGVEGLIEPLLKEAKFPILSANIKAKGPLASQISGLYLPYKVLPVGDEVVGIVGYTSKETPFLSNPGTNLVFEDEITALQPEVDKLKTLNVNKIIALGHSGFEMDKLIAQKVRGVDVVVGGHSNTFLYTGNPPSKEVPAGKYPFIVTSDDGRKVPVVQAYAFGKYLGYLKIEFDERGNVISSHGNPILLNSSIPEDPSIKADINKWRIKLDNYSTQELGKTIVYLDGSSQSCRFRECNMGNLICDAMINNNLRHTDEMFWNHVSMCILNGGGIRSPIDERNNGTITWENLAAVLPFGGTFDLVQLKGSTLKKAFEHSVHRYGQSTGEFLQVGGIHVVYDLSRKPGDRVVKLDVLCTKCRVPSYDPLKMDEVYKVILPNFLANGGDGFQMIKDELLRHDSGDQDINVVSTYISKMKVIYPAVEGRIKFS
The experiment in a line: cell-based or functional assay.

In another experiment the target is T2, Murine CD73 on cells (murine, UniProt Q61503 29-551).
T2 sequence (looked up): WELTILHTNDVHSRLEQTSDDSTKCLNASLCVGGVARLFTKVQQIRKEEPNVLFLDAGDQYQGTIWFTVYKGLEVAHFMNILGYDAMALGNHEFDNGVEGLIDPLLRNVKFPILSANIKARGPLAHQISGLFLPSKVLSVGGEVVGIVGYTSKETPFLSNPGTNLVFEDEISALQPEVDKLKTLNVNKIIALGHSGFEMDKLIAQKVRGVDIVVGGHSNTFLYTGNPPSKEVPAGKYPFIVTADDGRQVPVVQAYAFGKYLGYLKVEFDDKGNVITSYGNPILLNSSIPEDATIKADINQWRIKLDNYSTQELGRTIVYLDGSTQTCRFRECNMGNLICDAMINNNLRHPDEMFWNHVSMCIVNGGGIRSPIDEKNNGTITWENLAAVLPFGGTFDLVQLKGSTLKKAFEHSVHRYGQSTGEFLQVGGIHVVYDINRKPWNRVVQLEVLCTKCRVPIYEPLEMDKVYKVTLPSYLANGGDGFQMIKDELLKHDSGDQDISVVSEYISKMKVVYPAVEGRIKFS
The experiment can be described thus: cell-based or functional assay.

B1: MEDI9447 (antibody, human IgG1, lambda, V domains shown)
VH: EVQLLESGGGLVQPGGSLRLSCAASGFTFSSYAYSWVRQAPGKGLEWVSAISGSGGRTYYADSVKGRFTISRDNSKNTLYLQMNSLRAEDTAVYYCARLGYGRVDEWGRGTLVTVSS
VL: QSVLTQPPSASGTPGQRVTISCSGSLSNIGRNPVNWYQQLPGTAPKLLIYLDNLRLSGVPDRFSGSKSGTSASLAISGLQSEDEADYYCATWDDSHPGWTFGGGTKLTVLG
Regarding B1, the “Antibody-mediated internalization of cytotoxic FabZAP reagent into MDA-MB-231 cells, EC50” value with Human CD73 on cells is 3.5 pM. For the same molecule, the “Antibody-mediated internalization of cytotoxic FabZAP reagent into 4T1 cells, EC50” value with Murine CD73 on cells was determined as 18.5 pM.
